{
  "source": "patent US9957308B2",
  "about": "“Method for detecting bilirubin using a fluorescent protein” (RIKEN, priority 2013, dated 2018)",
  "key": {"Escherichia coli cells": {"test_system": "Escherichia coli cells", "assay": "Expression of recombinant UnaG protein in Escherichia coli, fluorescence observation", "format": "cell-based", "conditions": "blue light, UV transilluminator", "text": "A DNA fragment including the sequence of full-length UnaG gene prepared above was ligated to the restriction enzyme sites, BamHI and EcoRI, of Escherichia coli expression vector […] (GE Healthcare) including a GST-tag sequence that can express the GST-fused protein in Escherichia coli and transformed into Escherichia coli strain DH5α for subcloning. Thus, a UnaG (apo form) expression vector (pGEX-2T-UnaG) for Escherichia coli was constructed.\nThe constructed expression vector (pGEX-2T-UnaG) was transformed into Escherichia coli strain BL21 (DE3). The transformant was cultured on a plate of an LB solid medium to obtain colonies. The resulting colonies were inoculated in 40 mL of an LB liquid medium and were cultured overnight at 37° C. Here, a glycerol stock of the resulting Escherichia coli solution was produced, and this glycerol stock was used as the recombinant (vector) for Escherichia coli expression in the experiments described below. The LB medium was scaled up to 400 mL using the culture solution, followed by culturing at 37° C. for 1 hr (A600≈1.0). […]\n(§1) FIG. 1 includes diagrams showing expression of recombinant UnaG protein in Escherichia coli and mammalian cells. […] The diagram (c) includes a differential interference image and a fluorescence image by observation of mammalian cell HEK293T expressing recombinant UnaG protein under a fluorescence microscope. […]"}, "mammalian cell HEK293T": {"test_system": "mammalian cell HEK293T", "assay": "Expression of recombinant UnaG protein in mammalian cells, fluorescence microscopy", "format": "cell-based", "conditions": "fluorescence microscope", "text": "DNA to be inserted to an expression vector for mammalian cell was amplified by PCR using full-length cDNA of the UnaG gene of SEQ ID NO: 2 as template DNA, a sense primer (SEQ ID NO: 24), and an antisense primer (SEQ ID NO: 25). A FLAG-tag sequence (SEQ ID NO: 26) was inserted into the KpnI restriction enzyme site and the BamHI restriction enzyme site of expression vector pcDNA3 (Invitrogen) for mammalian cell, and the amplified DNA fragment was ligated to the BamHI restriction enzyme site and the EcoRI restriction enzyme site of the resulting pcDNA3-FLAG vector and transformed into Escherichia coli strain DH5α for cloning. The vector was extracted from Escherichia coli and was purified. The sequence was confirmed by DNA sequence analysis. Thus, a UnaG expression vector (pcDNA3-FLAG-UnaG) for mammalian cells was constructed. […]\nAfter the expression of protein, the medium was removed from each dish, and the cells were rinsed with PBS. […] The purified FLAG-UnaG protein (holo form) was irradiated with a UV transilluminator for verifying whether fluorescence was present or not. […]\nas §1"}},
  "data": [
    {"molecule": "UnaG: fluorescent polypeptide including the amino acid sequence of SEQ ID NO: 1, originally isolated from Japanese eel; fluoresces in the presence of bilirubin (protein, listed as Anguilla japonica) MVEKFVGTWKIADSHNFGEYLKAIGAPKELSDGGDATTPTLYISQKDGDKMTVKIENGPPTFLDTQVKFKLGEEFDEFPSDRRKGVKSVVNLVGEKLVYVQKWDGKETTYVREIKDGKLVVTLTMGDVVAVRSYRRATE", "values": [
      {"measurement": "fluorescence of expressed protein in cells", "setting": "Escherichia coli cells", "value": "did not emit fluorescence"},
      {"measurement": "fluorescence of expressed protein in cells", "setting": "mammalian cell HEK293T", "value": "emitted fluorescence"}
    ]}
  ]
}
